What was measured:
[1] = biological target: P17-Fc fusion protein (human CD40 extracellular domain fused to human IgG1 Fc) (human) (UniProt P25942); experiment: ELISA on P17-Fc, positive control
[2] = biological target: P17-Fc fusion protein (human CD40 extracellular domain fused to human IgG1 Fc) (human) (UniProt P25942); experiment: ELISA, P17-Fc against titrated antibody
[3] = biological target: biotinylated P17-Fc fusion protein (human) (UniProt P25942); experiment: ELISA, biotinylated P17-Fc against titrated antibody
Chain of biotinylated P17-Fc fusion protein (human) (P25942 21-193 limits assumed): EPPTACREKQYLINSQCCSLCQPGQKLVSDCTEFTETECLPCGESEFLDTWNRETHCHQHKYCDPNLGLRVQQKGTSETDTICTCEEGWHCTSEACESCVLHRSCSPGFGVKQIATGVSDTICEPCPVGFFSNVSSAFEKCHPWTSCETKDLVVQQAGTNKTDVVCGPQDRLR

[4] = biological target: P17-Fc fusion protein (human CD40 extracellular domain fused to human IgG1 Fc) (human) (UniProt P25942); experiment: ELISA, unbiotinylated P17-Fc against titrated antibody
[5] = biological target: human CD40 expressed on the cell surface (human) (UniProt P25942); experiment: flow cytometry on CHO-K-huCD40 cells, APC anti-human IgG Fc secondary antibody
Chain of human CD40 expressed on the cell surface (human) (P25942 21-277): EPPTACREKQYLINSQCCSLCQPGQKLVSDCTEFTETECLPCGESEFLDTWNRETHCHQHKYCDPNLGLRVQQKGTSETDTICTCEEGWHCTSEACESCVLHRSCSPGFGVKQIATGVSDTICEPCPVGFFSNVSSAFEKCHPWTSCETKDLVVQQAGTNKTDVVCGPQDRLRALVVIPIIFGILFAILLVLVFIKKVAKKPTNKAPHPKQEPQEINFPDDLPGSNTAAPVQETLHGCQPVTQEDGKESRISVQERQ

[6] = biological target: human CD40 expressed on the cell surface (human) (UniProt P25942); experiment: blocking assay by flow cytometry: CHO-K-huCD40 cells with titrated antibody, then CD40L-biotin (200 ng/mL) and PE-streptavidin; blocked ligand CD40L

Chain of P17-Fc fusion protein (human CD40 extracellular domain fused to human IgG1 Fc) (human) (P25942 21-193 limits assumed): as the sequence (P25942 21-193 limits assumed) above

| EC50 [1] [µg/mL] | EC50 (read off the curve) [2] [µg/mL] | EC50 (read off the curve) [3] [µg/mL] | EC50 (read off the curve) [4] [µg/mL] | EC50 (read off the curve) [5] [µg/mL] | IC50 (read off the curve) [6] [µg/mL] | Binder |
| --- | --- | --- | --- | --- | --- | --- |
| 0.047 | 0.2 | 0.08 | 0.08 | 0.7 | 1 | Bleslumab (antibody, INN chains, looked up, V domains shown) VH: QLQLQESGPGLLKPSETLSLTCTVSGGSISSPGYYGGWIRQPPGKGLEWIGSIYKSGSTYHNPSLKSRVTISVDTSKNQFSLKLSSVTAADTAVYYCTRPVVRYFGWFDPWGQGTLVTVSS VL: AIQLTQSPSSLSASVGDRVTITCRASQGISSALAWYQQKPGKAPKLLIYDASNLESGVPSRFSGSGSGTDFTLTISSLQPEDFATYYCQQFNSYPTFGQGTKVEIK |
| – | 0.3 | 0.08 | 0.08 | – | – | Dacetuzumab (antibody, INN chains, looked up, V domains shown) VH: EVQLVESGGGLVQPGGSLRLSCAASGYSFTGYYIHWVRQAPGKGLEWVARVIPNAGGTSYNQKFKGRFTLSVDNSKNTAYLQMNSLRAEDTAVYYCAREGIYWWGQGTLVTVSS VL: DIQMTQSPSSLSASVGDRVTITCRSSQSLVHSNGNTFLHWYQQKPGKAPKLLIYTVSNRFSGVPSRFSGSGSGTDFTLTISSLQPEDFATYFCSQTTHVPWTFGQGTKVEIKR |
